Test results published in the supplement of paper PMC12042874.
± gives the uncertainty stated by the source.

Experiment: amyloid nucleation score (Sup35N fusion, yeast selection) (log enrichment); library NNK2; higher = more nucleation; inactive = no reads after selection
Method in brief: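 The nucleation score is a DiMSum log enrichment of output over input reads, centred on the mode score of non-aggregating sequences. Sequences under 100 input reads were excluded, and reads came from Illumina sequencing of plasmid inserts. Psi-negative yeast expressing Sup35N fused to peptides of 20 random codons were induced with 100 μM copper sulfate for 24 hours and grown 7 days at 30°C on medium lacking adenine and uracil. Random libraries had three technical output replicates.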

| Substance | amyloid nucleation score |
| --- | --- |
| FFYRVPDITSDAGITQLLAQ | 5.483 ± 0.048 |
| DTCYVTTYVWWKTLCPVGLV | 1.72 ± 0.31 |
| YGYSIYLFTGCVKTVLFVSD | 4.68 ± 0.048 |
| DNMSNYSGACLSNYL | -0.292 ± 0.56 |
| SYCYWMFSVLGGSSASEFRY | inactive |
| LIVYKLV | -0.094 ± 0.74 |
| EFFISVSLNWCKTDCYTDPW | -0.407 ± 0.2 |
| RLIYLCGSRGPNTEFVRVKR | 3.21 ± 0.055 |
| LNTEMGSLKNL | 3.08 ± 0.06 |
| VHVYVGQKWSGGVLSLACYK | 1.09 ± 0.35 |
| GVSLLVSTSHGFVREPQVTS | 0.526 ± 0.66 |
| FGVNDLYSDLW | -0.68 ± 0.25 |
| NCTHPFDMTPNFFWSYGIVG | -0.656 ± 1.1 |
| KFSHQVEILPSGTSIGSCER | -0.111 ± 0.63 |
| WINLSRFFSLGKFRIAIRYY | -1.04 ± 1.1 |
| NMTKRWMVCYHFFFKNYDLT | 0.207 ± 0.8 |
| LLACVSVMFLRSSLINLDRL | -0.637 ± 0.54 |
| GTFQSYHDTPEECSFRGKSV | -0.114 ± 1.1 |
| QFFMWTGGH | 2.84 ± 0.1 |
| HLFPAGRSKTHAVFWFQGKG | 0.412 ± 0.37 |
| SRLSKTRLPFWHFMNMLKMP | 0.126 ± 0.56 |
| WAFNPTELLVDAQKSRGRIW | inactive |
| SILGSSRTCILSSWWNVGTL | -0.091 ± 0.8 |
| GYCPLGAPCAGM | 1.23 ± 0.2 |
| IDLSLNLGVRGVRQDETLFA | inactive |

| Substance | amyloid nucleation score |
| --- | --- |
| MNEFCRTGCRTFRQRSSCCR | 0.868 ± 0.15 |
| LGHHVQYLRFVWLWQND | 1.17 ± 0.22 |
| NQYMFFGSHRD | 0.424 ± 0.49 |
| KDNYNLNTGSSTISGHRWFA | inactive |
| FLLSVGSHCMPVHEYGMTNA | 0.445 ± 0.56 |
| VKFFFTILVPFLIFVS | inactive |
| IMSSVELWENHYCGDVCMIV | 7.908 ± 0.049 |
| SSYNSGLRLLSFTCCV | 9.355 ± 0.052 |
| MERIPVVSDMGRLGFSACRL | 0.821 ± 0.23 |
| NDLYDSINEA | -0.885 ± 0.38 |
| GSSRLKGDGIVLVKCSWRYM | 1.13 ± 0.38 |
| DKKMVTTPTMPDK | 0.977 ± 0.2 |
| PPTTT | 0.621 ± 0.43 |
| TLQMGQSMPSFFGLRWAVYR | 0.503 ± 0.43 |
| SSIRKDNRGCAHGGLVVER | 0.698 ± 0.44 |
| SYGVLGDLASGTSRTID | -1.25 ± 0.64 |
| LFYGNWPVFKGVLFCAVLVG | 0.092 ± 0.79 |
| TWTRLALFMLIPSG | 0.464 ± 0.35 |
| TYYVYEVGVS | -0.203 ± 0.41 |
| IMNGLMDFMLTKVLKDMFNW | -0.249 ± 1.1 |
| LYLYSWRCNPISP | inactive |
| CTPNWRLSSFRWYVLRTFSE | 0.052 ± 0.37 |
| MIASIGLDCEHVM | 0.841 ± 0.5 |
| SRICMKWDSSNLWSF | inactive |
| ALGSRSTDSGSWITNFLSSR | -0.213 ± 0.79 |

| Substance | amyloid nucleation score |
| --- | --- |
| VRLEPSHRVCRRVRLTSILR | inactive |
| CYGYMIMSAFMVGHWEPDRM | 0.205 ± 0.77 |
| DNCVIRALQRRNVLVV | -1.18 ± 0.39 |
| SSATFYT | 1.43 ± 0.26 |
| DLYPENFASMRFRVTTSLVF | inactive |
| LLNFYGGMWRGYLTLRYVFG | 0.201 ± 0.6 |
| TFRWCHCYLTKEHVRFTCRA | 1.55 ± 0.53 |
| ALERWS | 0.024 ± 0.74 |
| SRLRNYLKVLSD | -0.474 ± 1.1 |
| IRECLVRSATSFLLDHKRRC | -0.383 ± 1 |
| GRYILFFSRSEFDFKIVQSV | 2.23 ± 0.21 |
| EINGY | -0.418 ± 1 |
| QLHIWVVIRYPLYLINKTVW | 0.436 ± 0.8 |
| YVLIVRYILGSSLRELAYGR | -0.38 ± 0.3 |
| LVKGRAAERCNFLSWVKSVQ | -0.533 ± 0.3 |
| VSWTPWESIFSGVMV | -0.568 ± 0.61 |
| LAQWLTRLYAK | 1.12 ± 0.4 |
| LSFIFL | 4.256 ± 0.031 |
| FNVSYSISMMLKRGVCAHCW | 6.038 ± 0.034 |
| TGAYI | -1.94 ± 0.75 |
| LSQVSRFLSSTNLT | 0.579 ± 0.47 |
| FKDTWQSPGAVERKGMRTSV | 0.365 ± 0.22 |
| EFNCYGWKRRKRRCWGGKCR | 0.726 ± 0.41 |
| FKSTYVHHYRVMPGSVVLLR | -1.2 ± 1.1 |
| VFRDLSIERFIRSYVNCDRG | inactive |

| Substance | amyloid nucleation score |
| --- | --- |
| SHMSHYRNSSTDFAA | -0.745 ± 0.42 |
| FRGIGWAC | 0.907 ± 0.47 |
| VAWVYSVLKCVSGLVG | -0.013 ± 0.4 |
| PYFCDIMNGTCRYSLYGFSM | 0.37 ± 0.51 |
| DINVCRVYEY | -0.011 ± 1.1 |
| FLLDCN | 2.56 ± 0.15 |
| FWRVRVFGASLFL | inactive |
| FNTGSSMLLLIRVMVGKFGG | -1.57 ± 1.1 |
| ARVRTMSVRFPVLSVVCYKL | 3.69 ± 0.057 |
| RVIHKFLYK | 6.288 ± 0.06 |
| MAGWLLNINLLMPIVGDVLQ | 8.131 ± 0.056 |
| DSNMRMIA | 0.448 ± 0.6 |
| YQAGWDEVGSLCLRVRNEKL | 4.38 ± 0.074 |
| SMSIWSFYIAP | 4.59 ± 0.066 |
| GHFRFEHCVSVSLSSIFSNE | 1.55 ± 0.11 |
| VKFTVFTQGQALIVPSGLL | 5.32 ± 0.084 |
| LIISRTFVTAPM | inactive |
| TLLYKFTDCTVMMAIRVARR | 1.45 ± 0.52 |
| HMCHTVLHVSAGY | 0.246 ± 0.8 |
| PFRKDVTLPLIFVLHVLQPD | -0.191 ± 0.54 |
| YGRGWHCTLYCIN | 0.008 ± 0.8 |
| NYILSMLCKMNARCLVTWRI | 0.712 ± 0.4 |
| WLFDGGFSVKWPDRVSLARV | -1.14 ± 1 |
| PMYRILNSTKESSGFALRGP | -0.952 ± 0.45 |
| HKGYCVRIIT | -0.335 ± 0.26 |

| Substance | amyloid nucleation score |
| --- | --- |
| KFLLGSVGTLQSNPTLFHLR | 0.095 ± 0.33 |
| VRFYDLFFKVGRQVYCLNNS | -0.694 ± 0.55 |
| EEYCSFKLVHMGRGPAGHSI | 2.58 ± 0.11 |
| FKIVALTTVNIVLRDSWCNP | 6.199 ± 0.061 |
| GTILPCNWNNLLYWVVGENA | 0.438 ± 0.25 |
| LLAKNTSRNRFTHDFVPKVR | inactive |
| YRRSPFETSGLQSCYCGSIG | -0.003 ± 1.1 |
| QFHFWMQRMMFPLEFVIWVW | 1.33 ± 0.34 |
| ILVYASWLGYHLDICSGFRS | 1.64 ± 0.089 |
| GELDGNRERILRRRGTMDYQ | 2.56 ± 0.091 |
| CNGSRVKDFRCRFRWNGLGL | -0.889 ± 0.41 |
| SISSGMVDVAGQLSCTRVSE | 1.65 ± 0.32 |
| VHGDMVFVCLTRCYRMF | 5.37 ± 0.065 |
| RTSCVYSHWQHNIERLLGRW | inactive |
| SLFAVQTVVEVVVHV | 0.762 ± 0.41 |
| VFMCVGFLLYHMNSELGPRG | 2.88 ± 0.087 |
| PFYLVRRGWNIWNSNGVECH | -0.161 ± 1.1 |
| NKARWAPVRMEALLVAQRVG | 1.28 ± 0.38 |
| SFKYCMMISGGF | 4.503 ± 0.041 |
| KWIYQIFPVMALECKGVLH | 2.85 ± 0.15 |
| SCPGLGNRIPDTVKYT | 0.969 ± 0.22 |
| SSASALMKLVMMY | -0.003 ± 0.22 |
| FVQAVDVVWFGILLKVLFRS | inactive |
| IMSSHKSAYRVFLHGLCRMV | -0.028 ± 0.74 |
| MLIDSWSVAIYICLLLIQVQ | 1.34 ± 0.13 |

| Substance | amyloid nucleation score |
| --- | --- |
| LRPLVL | -0.686 ± 1.1 |
| LSNCNRMLAGQGGGSRSDWR | 0.907 ± 0.37 |
| NDSCELLCESITYTAWFSGQ | 3.22 ± 0.12 |
| LRVHESAGSNLVVWIKIVLE | 3.42 ± 0.14 |
| FSVRLMAVRQGRLTAVGKSD | 0.331 ± 0.42 |
| HSLLLRWNGYSM | 4.92 ± 0.1 |
| SISLEIHTAGTGKSRLPFYS | 5.67 ± 0.073 |
| NIVYESDVVFSCISKYWL | 5.426 ± 0.04 |
| DLWRLMEIFMRSMRWHGITT | -0.456 ± 0.32 |
| NTFFQYDPRHRGHTAGWCGE | 0.07 ± 0.54 |
| CVSFVQSFCYIHIQLNYHCR | -0.43 ± 1.1 |
| PLAVGRCGGIAYSVWCTVNL | 5.15 ± 0.078 |
| VQNMIDKVMKYWTYSICSTV | 1.27 ± 0.36 |
| MPEIREREMYGLVESLEYKK | -0.147 ± 0.41 |
| GGPCDRGTFMMCDPWSFSLL | 0.513 ± 0.39 |
| VTRSLLLCHFSTCCFSALTW | -0.086 ± 0.32 |
| VNYYSFLLVFPGLQLTREIN | 6.38 ± 0.09 |
| TEIHNT | inactive |
| HLMRLHY | -1.78 ± 1.1 |
| YNYLCWNRKKGANRTCVSGR | -0.502 ± 0.44 |
| FRGDILRFL | inactive |
| SHWEMRQVGSVVVGIKGKGN | 0.972 ± 0.67 |
| SKMCCDMYISISCIIWSARR | 0.352 ± 0.32 |
| MRWIFGHAGPSFSCILKKRP | inactive |
| RRLFSVKIAYLCDT | 2.63 ± 0.2 |

| Substance | amyloid nucleation score |
| --- | --- |
| CMNSSDLECPMGDCVCVVLN | 2.82 ± 0.1 |
| CYLGVKCVLGWQSWRVVYSN | inactive |
| TSSYTWGVEPDASRTILVDT | 0.4 ± 0.32 |
| YLGTDGFNDGLVGLTTNIMS | -0.798 ± 0.47 |
| LVHCLSPRIVATGVPHGMMV | 1.04 ± 0.35 |
| FNWVEWLFFSMAFKLLVESR | inactive |
| SLLLFIYQMDRLVVASMLTN | -0.651 ± 1.1 |
| NFVKRV | -0.509 ± 0.48 |
| SWETKVHIYMTDMLFSRHMS | 2.63 ± 0.086 |
| GGLWTGLVSASKEFSK | inactive |
| HYYIHSFNMYPVGSRLVPYE | -0.065 ± 0.42 |
| HKVFISLLCWEKMQKGLTQ | -0.295 ± 0.55 |
| LNVRLFSVFFSHTSSSHSEN | 3.21 ± 0.061 |
| ETKWPDHYK | 0.515 ± 0.64 |
| FPIFKHDWLFYWCTPSIKGR | -1.06 ± 0.31 |
| FKHVLDRN | -0.343 ± 0.45 |
| KYTGMKYRPTVCLGVEVQLK | 3.83 ± 0.062 |
| EVRRCGEEFGNGARMRWMGV | 0.923 ± 0.28 |
| GYTVCRLGCRFVMSLWNILV | -0.221 ± 1.1 |
